Experimental data from the DeepSol protein solubility set.

Assay: soluble on expression in E. coli; label from the status in PepcDB or PDB records

| Sequence | soluble on expression in E. coli |
| --- | --- |
| MGSDKIHHHHHHMVWRDAEGQVHALEDRCPHRGARLSLGWNLGDRVACWYHGVEVRADGVVADVPAVHECPMTGTKCLKSYPVIEQHGAIFIWFGIDANEQPAPLEFPEQLASEEWSSFLCQADWKVNHQYAIDNVMDPMHGTYLHCTSHSMAEGERTAEMKHRTTENGFVFEKEGQTGVNFDWVEYGSTGASWLRLSIPYRKQFGPGGEFWIVGYATPIDANNTRVFFWRCRKVSGWQRNVWRFLYRNHLEQLHWDVLEQDRIILENLAPNARAREFLYQHDVGLARLRRLMKKEAEKQLKKIAALNASNRIEMQEEAHG | not soluble |
| MGSDKIHHHHHHMTVLHSPEPDIDPAILLEAADWLVLLQSGEATERDRMALAHWRERNPAHEAAWRRAENMLSTFDQVPPKLGHDTFSHLGNPGRRQMLRLGLLALAMPAAWITWRHSPWQEWVADLRTATGEQKLIDLNDGTHLVLNTTSAANVAFTTAERRLILLAGEILVTTGRDPSPVSRPFIVQTAHGSLRALGTRFTVRHFDDRTQVAVLEGAVEVHPAVSIQTTVLRAGEQMTFTGLDMQPVRPVEASTTLWEHGMLLARDMHLGELIAELNRYHRGVLRCDPSVASLAISGAFPVTDIPASLALLETTLPIRISSTTSWWITVQAR | not soluble |
| MDGSLSRPAVLDRAARQKRGTMARPQSKKKQTQVVRRPRRRGRLVPPGRLIAGRDFPEFLQQAVLLSGSLRQAARKLRVSYSTLRGWFGRRCDEPPEGGGDLLAEHAAAIRAELDAAAERLAMVRGQLDALERGE | not soluble |
| MGGLYVSNFYGIFYSSNSESSTTLVDFCKYNAEIVEQTIFLEFVEFSNESIIFLKNLYSKMVNNSNFNIKKKFFHRKNSVTVYSNFLNFSKNLVKKFGV | not soluble |
| MFNALLLTQQDKITHATVTQINDDQLPAGNVTVAVNYSSLNYKDGLAITGKGKIIREFPMVPGIDFAGTVLESADARYQVGDAVVLTGWGVGENHWGGMAQKARLNADWLVKLPQGLTSQQAMMIGTAGFTAMLCVQALIDGGIKPEDGEILVTGASGGVGSVAVTLLAQLGYKVVAVTGRVAQNGPLLEQLGASRVIDRQEFSEASRPLEKQLWVGAVDTVGSKVLAKVLAQMHYNGVVAACGLAGGFDLPTTVMPFILRNVRLQGVDSVSCPVEKRLAAWKKLAELLPASYYAQACHEISLSQVPEYAEAITNGQVTGRVVVKL | not soluble |
| MSLQAKIKNKRVLVKFSGEALAGDNQFGIDIHVLDHIAKEIKSLVENDIEVGIVIGGGNIIRGVSAAQGGIIRRTSGDYMGMLATVINAVAMQEALEHIGLDTRVQSAIEIKEICESYIYRKAIRHLEKGRVVIFGAGTGNPFFTTDTAATLRAIEIGSDLIIKATKVDGIYDKDPNKFKDAKKLDTLSYNDALIGDIEVMDDTAISLAKDNKLPIVVCNMFKKGNLLQVIKHQQGVFSMVKEGHHHHHH | soluble |
| FAADLNSNLNLFYTPSEIVNGKTDTGVKPEAGQRIRVGGMVTVGSMVRDPNSLHVQFAVHDSLGGEILVTYDDLLPDLFREGQGIVAQGVLGEDGKLAATEVLAKHDENYMPPEVAEAMGQKHEKLDYSQQKSATQ | soluble |
| MGFFSGQFSNVVEWEEFREDMIFWKWHNREIKRGSKLIIRPGQDAIFLFNGRIEGIFKDEGDYDIESQIIPFLSTLQGFKFGFNSGMRAEVLFVNTKEFTAKWGTKSAINIPTPQLPGGIPIRANGTFTFKVNDYVKLIDRIAGVKDSFLVEDVRLRIMALLDQLMMKWIVQEGRDMFNLQSNSFAIADGLKTDLDMQIYDMGITVSQLTIMSFTYPEEIQQMIAKAASHTMIGDMGRYQQVSVLDGIAGGKGQGGSAAADMAGMAIGMQMANEMIKGVTSPQREQTQGRGSHAPQGGSEPGLIKPNFCPNCGQKTDGANFCSNCGQKLVLEHHHHHH | soluble |
| MTKSKSKKEDLIPEIGDFTKFFKSRSKFSDQITDVISNVYEWSTSLEPSEDNLPLPFVSKNEEVVWSYLKHQNKQLDGINKKYKGFLSELIGKSHIRVAAKIQDSEGSEDGSDGSDGGSEEELDDDEEELEDEELEDEMIDDEDEADLFNLSESDLKTLDADLKKMEEEEAGEEKEEVEKATEQPKKFKKSIVDDQFFNLDEMHDFLQKTERAGGKKAAQDEEMMFEDEDSWDGKTDYTYEDFFGSRETVAETEKMNGEKKKIEKDKKRKAGDKADLSLDDGKNKKRVRFAMDEEPEEEEVEDEEQEDINDEEEPPEDEPVLLGADLEEPKEESAFAKRQSKMKERIAKLEEENLAPKSWELSGEVAADQRDQNTLLEKHVDFDHGAKRAPEVTEEFTDRLESLIKQRIRDKAWDDVIRVKKVEAKGAKFETEAIENQMNQKTSLAEVYEKEYQNSTGNSADGAAGATKPNEAHEAIKSKMGDLFRLIDALTHFEYKPDQAREEVKVVSNMAALRVEEVGITASTEAQLMAPEEISKKMKAIEKSKDERDATDKARERRQKKAKQRSMLEKFGEERVFGEQKAVKLAKKERKAGKEKGGGVDKIKSSNFFAKLQETVAAEKKDGAVTKKKKKIVKRLKSDKNSAAIKL | not soluble |
| MVNYKEKLDEAIHLTQQKGFEQTRAEWLMLDVFQWTRTDFVVHMHDDMPKAMIMKFDLALQRMLLGEPIQYIVGFASFYGRTFDVNSNCLIPRPETEEVMLHFLQQLEDDATIVDIGTGSGVLAITLKCEKPDLNVIATDISLEAMNMARNNAEKHQSQIQFLTGDALKPLINEGIKLNGLISNPPYIDEKDMVTMSPTVTRFEPHQALFADNHGYAIYESIIEDLPHVMEKGSPVVFEIGYNQGEALKSIILNKFPDKKIDIIKDINGHDRIVSFKW | not soluble |
| AHHHHHHGSAGVRLVDVWKVFGEVTAVRELSLEVKDGEFMILLGPSGCGKTTTLRMIAGLEEPSRGQIYIGDRLVADPEKGIFVPPKDRDIAMVFQSYALYPHMTVYDNIAFPLKLRKVPRQEIDQRVREVAELLGLTELLNRKPRELSGGQRQRVALGRAIVRKPQVFLMDEPLSNLDAKLRVRMRAELKKLQRQLGVTTIYVTHDQVEAMTMGDRIAVMNGGVLQQVGSPDEVYDKPANTFVAGFIGSPPMNFLDAIVTEDGFVDFGEFRLKLLPDQFEVLGELGYVGREVIFGIRPEDLYDAMFARVRVPGENLVRAVVEIVENLGSERIVHLRVGGVTFVGAFRSESRVREGVEVDVVFDMKKIHIFDKTTGKAIF | soluble |
| MAHHHHHHMLCLVRAAEPKPYTALSPEALYEAVQPHDHTLRPSPFIAHQALMDFYKACDGYYGVNREEVDVQQLTSFEHKKTHGGASSGNNSGSNSGATLSSLLSGSASAAPSSSLSAAAGAPPLPPLPSPDDPNLAEKLNDYRIAQLRRNAQHVDNTVYHAHNSSNGGSNSNVANAGSSGVCHFYRTPEGCQRGAACPFTHLDKHGQPVNRVAKS | soluble |
| MSLSSNRGVVYIGPGKVEVQDIADPKLEAPDRRKIAHGVILKVVSTNICGSDQHMVRGRTTAEPGLILGHEITGEVIEKGADVEMLEIGDIVSVPFNVACGRCRCCREGDTGVCLTVNPSRAGGAYGYVDMGGWIGGQARYVMVPYADFNLLKFPDRDRAMAKIRDLTMLSDILPTGFHGAWKAGVGVGSVVYVAGAGPVGLAAAASARILGAAVVMVGDFNKERLEHARKVGFEPVDLSKGDDLPEMIAQITGTPEVDAAIDAVGFEARGHSGGEQPAIVLNQMMQITRAAGQIGIPGLYVTEDPGAVDDAARHGSLSMRFGLGWAKAQSFHTGQTPVLKYNRQLMQAILHDRLPIADIVNATVIPLDQAVQGYESFDRGVAKKFVLDPHGMLAAEGHHHHHH | not soluble |
| SLKEFELKGINHLALVCRDFQETIDFYTITLGLKLIKNIDLPSGGKHFFIDIGNNNTLAFFWSTKAPESVPGISSVRPEAFLTGDIITAHGSMNHVAFHVPLEKLEEYKEKLVSKGVQTTPVLHHTDVPMSSFYFFDPNGILLEFAANLQSLDTLPAELKEKEAIFLKEG | soluble |
| MPPKTSEVARKLERLGFKPLPRRGKGGHRVYVHPDGRKVVLPLHSGEIPWGLFKTVLKQAGITEEEFRRA | soluble |
| MHHHHHHGTSLYKKAGSENLYFQGITTRTARQCGQADYGWLQARYTFSFGHYFDPKLLGYASLRVLNQEVLAPGAAFQPRTYPKVDILNVILDGEAEYRDSEGNHVQASAGEALLLSTQPGVSYSEHNLSKDKPLTRMQLWLDACPQRENPLIQKLALNMGKQQLIASPEGAMGSLQLRQQVWLHHIVLDKGESANFQLHGPRAYLQSIHGKFHALTHHEEKAALTCGDGAFIRDEANITLVADSPLRALLIDLPV | soluble |
| MCDKSKTVLDYTIEFLDKYIPEWFETGNKCPLFIFFSGPQGSGKSFTSIQIYNHLMEKYGGEKSIGYASIDDFYLTHEDQLKLNEQFKNNKLLQGRGLPGTHDMKLLQEVLNTIFNNNEHPDQDTVVLPKYDKSQFKGEGDRCPTGQKIKLPVDIFILEGWFLGFNPILQGIENNDLLTGDMVDVNAKLFFYSDLLWRNPEIKSLGIVFTTDNINNVYGWRLQQEHELISKVGKGMTDEQVHAFVDRYMPSYKLYLNDFVRSESLGSIATLTLGIDSNRNVYSTKTRCIE | soluble |
| MPQPKKDKPDTPLRSDAQRNRERILAVATEELTHCANAPLSAIAKKAGVGQGTFYRNFPNREALVLEIYRYGMQQVAEAAPEMLATGEPDLALRQWMDRLAEFAMTKAGLADAIRLVTSAPGAPEKPRPTPLEDAAELLLRANHEAGTIRPGVTGDDFFLVLGGLWLIDPGENWQPRVTRFLDLVMDGLRAGAPGR | not soluble |
| MGSDKIHHHHHHVQYLDKLVSGLAVELHVPEGDYEGNYKTHVDEIGKTRLSVYAPHYQGMIIPLQEGTLVEVTFWDDVASYSFMSSVLQRVATPIPMFVLKMPDSIRRVQRRNYVRVSASFPITYQVVEREGLGDLLKGNMLDLSGGGMRFQAKVKLDKGSILYANLELPCGIIGTPGRVCRVEPIEDTKYFSVSVDFYQISERDRDRIIRCVFDIQRDLRKKGLI | not soluble |
| MTAPFFPRILGAVAFLNQETEPLTMNLQHHFLIAMPALQDPIFRRSVVYICEHNTNGAMGIIVNKPLENLKIEGILEKLKITPEPRDESIRLDKPVMLGGPLAEDRGFILHTPPSNFASSIRISDNTVMTTSRDVLETLGTDKQPSDVLVALGYASWEKGQLEQEILDNAWLTAPADLNILFKTPIADRWREAAKLIGVDILTMPGVAGHALEHHHHHH | not soluble |
| MFVDRQRIDLLNRLIDARVDLAAYVQLRKAKGYMSVSESNHLRDNFFKLNRELHDKSLRLNLHLDQEEWSALHHAEEALATAAVCLMSGHHDCPTVITVNADKLENCLMSLTLSIQSLQKHAMLEKA | soluble |
| MHALVQLRGEVNMHTDIQDTLEMLNIHHVNHCTLVPETDAYRGMVAKVNDFVAFGEPSQETLETVLATRAEPLEGDADVDDEWVAEHTDYDDISGLAFALLSEETTLREQGLSPTLRLHPPRGGHDGVKHPVKEGGQLGKHDTEGIDDLLEAMR | soluble |
| MNNYIDLAKTYGGFTSLDTNYLNHLLASLTDQQKLAFITPPPSVINAYFAEIYQKQSPQAATDYYFNLSKALGLFTDQPSFEEEKPFVRLNLSGKAYGFAYQNDQEVALVFSEKAEPKKPELFFELTQIFPQYMVYEDKGQLKMQAKQFEQGECEDITPDDTLLSKIYRLANGITMLKGFNVEELWALSQTFSGQKYYDFAQREFMIYITQ | not soluble |
